This passage reports induction of apoptosis results from patent US20070202134A1, “Muc1 Antagonist Enhancement of Death Receptor Ligand-Induced Apoptosis” (priority 2004, published 2007).

The test relates to HCT116/vector cells. The test is described as follows: Apoptosis by analysis of sub-G1 DNA, HCT116/vector cells. The format is cell-based, Human. The settings on record: 100 ng/ml TRAIL for 14 hr, without adding CHX. The method, then: Methods. Apoptotic cells were quantified by analysis of sub-G1 DNA and TUNEL staining. To assess sub-G1 DNA content, cells were harvested, washed with PBS, fixed with 80% ethanol, and incubated in PBS containing 20 ng/ml RNase (Roche) for 60 min at 37° C. Cells were then stained with […] propidium iodide (Sigma) for 30 min at room temperature in the dark. DNA content was analyzed by flow cytometry (EPICS XL-MCL, Coulter Corp.). Apoptotic cells with DNA fragmentation were detected by staining with the In Situ cell death detection kit (TUNEL; Roche Applied Science) and visualized by confocal microscopy (ZEISS LSM510). After staining, cells were analyzed by flow cytometry. Other experimental procedures and methods were as described in Example 1.

B1: TRAIL: TNF-related apoptosis-inducing ligand, rhTRAIL (Calbiochem-Novabiochem) (protein, UniProt P50591 1-281, looked up)
Tumor necrosis factor ligand …: MAMMEVQGGPSLGQTCVLIVIFTVLLQSLCVAVTYVYFTNELKQMQDKYSKSGIACFLKEDDSYWDPNDEESMNSPCWQVKWQLRQLVRKMILRTSEETISTVQEKQQNISPLVRERGPQRVAAHITGTRGRSNTLSSPNSKNEKALGRKINSWESSRSGHSFLSNLHLRNGELVIHEKGFYYIYSQTYFRFQEEIKENTKNDKQMVQYIYKYTSYPDPILLMKSARNSCWSKDAEYGLYSIYQGGIFELKENDRIFVSVTNEHLIDMDHEASFFGAFLVG
Turning to B1, the induction of apoptosis entry is “effective in inducing apoptosis”.
